Drawing on patent US6982321, this text covers fraction of crosslinked material for 1 molecule.

Where only a bound is given, the exact number is not on record here.

The test addresses isolated VL-domain of the reshaped anti-lysozyme Fv-fragment (HuVLLYS). The test is described as follows: formaldehyde crosslinking of Fv, overloaded SDS gel.

B1: isolated VL-domain of the reshaped anti-lysozyme Fv-fragment (HuVLLYS) (protein)
VL: DIQMTQSPSSLSASVGDRVTITCRASGNIHNYLAWYQQKPGKAPKLLIYYTTTLADGVPSRFSGSGSGTDFTFTISSLQPEDIATYYCQHFWSTPRTFGQGTKVEIK
Molecule B1 had a fraction of crosslinked material of less than 5%.
